Results reported in the supplement of paper PMC7125110.
± gives the standard error. For some of these results: Variants at the floor of the assay were thinned out.

B1: glmS ribozyme (parent)
chain: AUAAAAGCGCCAGAACUACAGAAAUGUAGUUGACGAGGAGGAGGUUUAUCGAAUUUUCGGCGGAUGCCUCCAAA

Key:
Settings in all cases: with glucosamine-6-phosphate
[1] = variants of: B1; test: kcat; higher = faster cleavage; RNA array
In short: (§1)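 Barcoded glmS ribozyme variants on sequenced MiSeq chips were transcribed in situ by E. coli RNA polymerase and tracked through a hybridised Cy3 probe at 37 °C. Glucosamine-6-phosphate (40 μM to 10 mM) in HEPES/KCl/Mg(OAc)2 buffer was flowed in, and tiles were imaged over ~14 h. Signals were normalised to baseline and to non-cleaving reference variants; per-tile medians were fit to one- or two-exponential decays to give kobs. kcat and KM came from weighted Michaelis–Menten fits across concentrations.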

[2] = variants of: B1; test: KM; higher = weaker cofactor use; RNA array
In short: as §1

[3] = variants of: B1; test: self-cleavage kobs at 40 uM GlcN6P; higher = faster cleavage; RNA array
In short: as §1

[4] = variants of: B1; test: self-cleavage kobs at 2500 uM GlcN6P; higher = faster cleavage; RNA array
In short: as §1

[5] = variants of: B1; test: self-cleavage kobs at 640 uM GlcN6P; higher = faster cleavage; RNA array
In short: as §1

[6] = variants of: B1; test: self-cleavage kobs at 10000 uM GlcN6P; higher = faster cleavage; RNA array
In short: as §1

[7] = variants of: B1; test: self-cleavage kobs at 160 uM GlcN6P; higher = faster cleavage; RNA array
In short: as §1

Row | Variant | kcat [1] | KM [2] | self-cleavage kobs at 40 uM GlcN6P [3] | self-cleavage kobs at 2500 uM GlcN6P [4] | self-cleavage kobs at 640 uM GlcN6P [5] | self-cleavage kobs at 10000 uM GlcN6P [6] | self-cleavage kobs at 160 uM GlcN6P [7]
1 | A12G G66U C67U | 8.1e-05 ± 2.4e-06 s⁻¹ | 1610 ± 110 µM | < 1e-05 s⁻¹ | 4.93e-05 ± 2.1e-05 s⁻¹ | – | – | –
2 | A12G C70G | 0.000171 ± 1.5e-05 s⁻¹ | 856 ± 240 µM | – | 0.000109 ± 1.6e-05 s⁻¹ | 7.9e-05 ± 1e-05 s⁻¹ | 0.000166 ± 1.6e-05 s⁻¹ | –
3 | A12G U55G | 0.00137 ± 0.00037 s⁻¹ | 6630 ± 3200 µM | – | 0.000784 ± 0.00017 s⁻¹ | 0.000113 ± 1.7e-05 s⁻¹ | 0.000815 ± 5.8e-05 s⁻¹ | –
4 | A12G U57C | 1.17e-05 ± 1.7e-06 s⁻¹ | – | < 1e-05 s⁻¹ | – | – | – | –
5 | A12C G62U C70G | 2.02e-05 ± 4.5e-06 s⁻¹ | – | – | – | – | – | –
6 | A12G C67G C68A | 6.18e-05 ± 2.3e-05 s⁻¹ | – | – | 6.87e-05 ± 1.8e-05 s⁻¹ | 0.000113 ± 2.6e-05 s⁻¹ | – | 6.68e-05 ± 1.8e-05 s⁻¹
7 | A12G U56A | 0.00105 ± 0.00021 s⁻¹ | 7960 ± 2300 µM | – | 0.000221 ± 4.8e-05 s⁻¹ | 7.85e-05 ± 1.1e-05 s⁻¹ | 0.000592 ± 6.2e-05 s⁻¹ | 4.26e-05 ± 1.7e-05 s⁻¹
8 | A12C U30C C71U | 0.00195 ± 0.00038 s⁻¹ | 3540 ± 1200 µM | 3.06e-05 ± 1.5e-05 s⁻¹ | 0.000922 ± 0.00025 s⁻¹ | 0.000258 ± 8.1e-05 s⁻¹ | 0.00141 ± 0.00029 s⁻¹ | –
9 | A12G G38U A39U | < 1e-05 s⁻¹ | – | < 1e-05 s⁻¹ | – | < 1e-05 s⁻¹ | – | –
10 | A12U C61G | < 1e-05 s⁻¹ | – | < 1e-05 s⁻¹ | – | – | – | –
11 | A12C U56G | 0.0146 ± 0.003 s⁻¹ | 3360 ± 910 µM | 0.000162 ± 2.5e-05 s⁻¹ | 0.0054 ± 0.0014 s⁻¹ | 0.00336 ± 0.00068 s⁻¹ | 0.0111 ± 0.0018 s⁻¹ | 0.000652 ± 0.00018 s⁻¹
12 | A12G A15G C70A | 0.000107 ± 1.9e-05 s⁻¹ | 2120 ± 890 µM | – | 5.85e-05 ± 1.1e-05 s⁻¹ | – | 8.6e-05 ± 3.1e-05 s⁻¹ | –
13 | A12U C67U | 0.0497 ± 0.018 s⁻¹ | 2250 ± 970 µM | 0.000918 ± 0.0001 s⁻¹ | 0.0421 ± 0.012 s⁻¹ | 0.0142 ± 0.0033 s⁻¹ | 0.0378 ± 0.0074 s⁻¹ | –
14 | A12G A39C | 0.000267 ± 1.7e-05 s⁻¹ | 2130 ± 300 µM | – | 0.000144 ± 1.2e-05 s⁻¹ | 6.42e-05 ± 1.1e-05 s⁻¹ | 0.00022 ± 2.2e-05 s⁻¹ | –
15 | A12G A33U | 1.86e-05 ± 6.4e-06 s⁻¹ | – | < 1e-05 s⁻¹ | – | – | < 1e-05 s⁻¹ | –
16 | A12C G37C | 8.54e-05 ± 2.4e-06 s⁻¹ | 6970 ± 420 µM | – | 2.27e-05 ± 8.6e-06 s⁻¹ | – | 5.03e-05 ± 7.5e-06 s⁻¹ | –
17 | A12G G32U | 0.00313 ± 0.00012 s⁻¹ | – | – | 0.00055 ± 5.4e-05 s⁻¹ | 0.000164 ± 1.8e-05 s⁻¹ | 0.00144 ± 0.00014 s⁻¹ | 4.1e-05 ± 8.1e-06 s⁻¹

Row | Variant | kcat [1] | KM [2] | self-cleavage kobs at 40 uM GlcN6P [3] | self-cleavage kobs at 2500 uM GlcN6P [4] | self-cleavage kobs at 640 uM GlcN6P [5] | self-cleavage kobs at 10000 uM GlcN6P [6] | self-cleavage kobs at 160 uM GlcN6P [7]
18 | A12C G41A | 0.00163 ± 0.00065 s⁻¹ | – | 7.57e-05 ± 9.1e-06 s⁻¹ | 0.00105 ± 0.00012 s⁻¹ | 0.000353 ± 3.5e-05 s⁻¹ | 0.00136 ± 0.00017 s⁻¹ | 0.000107 ± 1.7e-05 s⁻¹
19 | A12U A15C | 0.00683 ± 0.003 s⁻¹ | – | 0.000955 ± 0.00021 s⁻¹ | 0.00385 ± 0.0017 s⁻¹ | 0.0109 ± 0.0048 s⁻¹ | 0.0117 ± 0.0029 s⁻¹ | –
20 | A12U A48G | 0.000185 ± 3.6e-05 s⁻¹ | – | – | 0.000246 ± 3e-05 s⁻¹ | 9.16e-05 ± 1.3e-05 s⁻¹ | 0.000156 ± 1.5e-05 s⁻¹ | 2.8e-05 ± 1.2e-05 s⁻¹
21 | A12U A39C A52G | 0.000172 ± 2.4e-05 s⁻¹ | 2140 ± 680 µM | – | 8.04e-05 ± 1.8e-05 s⁻¹ | 4.67e-05 ± 1.3e-05 s⁻¹ | 0.00015 ± 2.7e-05 s⁻¹ | –
22 | A12G U54G | 0.000855 ± 0.00011 s⁻¹ | 2260 ± 460 µM | – | 0.000475 ± 5.8e-05 s⁻¹ | 0.000179 ± 2.1e-05 s⁻¹ | 0.00064 ± 0.00017 s⁻¹ | 6.55e-05 ± 1.5e-05 s⁻¹
23 | A12U C67U C70G | 2.06e-05 ± 6.6e-06 s⁻¹ | – | – | – | – | – | –
24 | A12U A52C C67A | 2.65e-05 ± 5e-06 s⁻¹ | – | – | – | – | – | –
25 | A12U A33C | 0.00204 ± 0.00049 s⁻¹ | 7810 ± 2600 µM | – | 0.000501 ± 9.3e-05 s⁻¹ | 0.000178 ± 3.4e-05 s⁻¹ | 0.00113 ± 0.00019 s⁻¹ | 2.87e-05 ± 1.3e-05 s⁻¹
26 | A12G G29C | 0.000167 ± 5.4e-05 s⁻¹ | – | – | 4.98e-05 ± 1.3e-05 s⁻¹ | 3.94e-05 ± 1.1e-05 s⁻¹ | 0.000123 ± 1.4e-05 s⁻¹ | –
27 | A12U A33U C67U | 0.000242 ± 4.7e-05 s⁻¹ | 6520 ± 2600 µM | – | – | – | 0.000146 ± 2.9e-05 s⁻¹ | –
28 | A12G C67A | 0.000389 ± 8.6e-05 s⁻¹ | 2400 ± 880 µM | – | 0.000186 ± 2.1e-05 s⁻¹ | 7.88e-05 ± 8.7e-06 s⁻¹ | 0.000343 ± 4.8e-05 s⁻¹ | 4.4e-05 ± 1e-05 s⁻¹
29 | A12C U45A | 0.0415 ± 0.0022 s⁻¹ | 1690 ± 110 µM | 0.000958 ± 0.00019 s⁻¹ | 0.0233 ± 0.0073 s⁻¹ | 0.0118 ± 0.003 s⁻¹ | 0.037 ± 0.013 s⁻¹ | 0.00352 ± 0.00099 s⁻¹
30 | A12G C50G | 1.17e-05 ± 2.1e-06 s⁻¹ | – | – | – | – | – | –
31 | A12G U47C | 0.000813 ± 9.1e-05 s⁻¹ | 3820 ± 720 µM | – | 0.000412 ± 8.3e-05 s⁻¹ | 0.000111 ± 1.5e-05 s⁻¹ | 0.000577 ± 6.1e-05 s⁻¹ | 3.52e-05 ± 1.3e-05 s⁻¹
32 | A12G U47A | 0.00138 ± 0.00029 s⁻¹ | 5500 ± 1600 µM | – | 0.000455 ± 7.1e-05 s⁻¹ | 0.000152 ± 1.9e-05 s⁻¹ | 0.000864 ± 0.00013 s⁻¹ | –
33 | A12G C58A | 0.000476 ± 0.0001 s⁻¹ | 1510 ± 610 µM | – | 0.000245 ± 3.3e-05 s⁻¹ | 0.000154 ± 1.7e-05 s⁻¹ | 0.000523 ± 7.4e-05 s⁻¹ | 4.69e-05 ± 1.3e-05 s⁻¹
34 | A12G C58G | 0.000117 ± 1.9e-05 s⁻¹ | – | – | 7.99e-05 ± 1.2e-05 s⁻¹ | – | 9.48e-05 ± 9.8e-06 s⁻¹ | –
